We go through two molecules from article PMC3124363 (Nature chemical biology, 2011).

For the assay, the target named is GST-Cdk1/GST-cyclin B1 complex (UniProt P06493 1-297; P14635 1-433). Briefly: cell-based or functional assay.
Chain of GST-Cdk1/GST-cyclin B1 complex (P06493 whole entry, chain 1 of 2): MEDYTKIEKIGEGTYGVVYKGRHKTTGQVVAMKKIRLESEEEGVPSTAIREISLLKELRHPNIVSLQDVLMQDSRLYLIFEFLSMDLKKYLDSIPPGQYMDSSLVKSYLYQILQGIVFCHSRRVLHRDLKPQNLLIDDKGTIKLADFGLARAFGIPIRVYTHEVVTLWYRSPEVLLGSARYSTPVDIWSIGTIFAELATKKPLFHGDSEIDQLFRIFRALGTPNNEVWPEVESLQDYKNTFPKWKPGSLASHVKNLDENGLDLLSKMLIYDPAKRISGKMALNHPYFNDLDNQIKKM
Chain of GST-Cdk1/GST-cyclin B1 complex (P14635 whole entry, chain 2 of 2): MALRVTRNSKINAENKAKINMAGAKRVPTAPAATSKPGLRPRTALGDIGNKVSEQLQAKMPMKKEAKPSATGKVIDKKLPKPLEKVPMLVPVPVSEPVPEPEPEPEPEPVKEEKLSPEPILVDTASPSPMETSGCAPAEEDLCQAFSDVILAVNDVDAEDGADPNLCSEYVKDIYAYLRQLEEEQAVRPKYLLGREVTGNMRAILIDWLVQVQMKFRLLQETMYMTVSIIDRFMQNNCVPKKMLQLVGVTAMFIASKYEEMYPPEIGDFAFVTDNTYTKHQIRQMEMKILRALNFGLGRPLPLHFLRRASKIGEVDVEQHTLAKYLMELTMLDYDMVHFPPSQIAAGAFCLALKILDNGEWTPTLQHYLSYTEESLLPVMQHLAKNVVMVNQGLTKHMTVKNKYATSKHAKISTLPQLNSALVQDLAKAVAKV

B1: p21-KID-LH+3 (p21-KID with sub-domain LH lengthened by three residues) (domain or fragment, human, UniProt P38936 9-84, looked up)
chain: RQNPCGSKACRRLFGPVDSEQLSRDCDALMAGCIQEARERALRWNFDFVTETPLEGDFAWERVRGLGLPKLYLPTGPRR
For B1, the “IC50 of inhibition of Cdk1/cyclin B1 kinase activity in vitro (substrate Rb^C)” value amounted to 71 nM.

B2: p21-KID-LH−3 (p21-KID with sub-domain LH shortened by three residues) (domain or fragment, human, UniProt P38936 9-84, looked up)
chain: RQNPCGSKACRRLFGPVDSEQLSRDCDALMAGCIQEAWNFDFVTETPLEGDFAWERVRGLGLPKLYLPTGPRR
As for B2, the “IC50 of inhibition of Cdk1/cyclin B1 kinase activity in vitro (substrate Rb^C)” value was found to be 218 nM.
